Molecular target: T1, GPIIbIIIa on activated human platelets (human, UniProt P08514 32-1039; P05106 27-788)
T1 construct: whole, on cells; also called active form of GPIIbIIIa
Assay: FACS on activated human platelets, FITC-labeled FVII antibody; reference FVIIaFc (FVII-011); FIG. 44C

B1: FVII-094 (other)
chain 1: ANAFLEELRPGSLERECKEEQCSFEEAREIFKDAERTKLFWISYSDGDQCASSPCQNGGSCKDQLQSYICFCLPAFEGRNCETHKDDQLICVNENGGCEQYCSDHTGTKRSCRCHEGYSLLADGVSCTPTVEYPCGKIPILEKRNASKPQGR
chain 2: IVGGKVCPKGECPWQVLLLVNGAQLCGGTLINTIWVVSAAHCFDKIKNWRNLIAVLGEHDLSEHDGDEQSRRVAQVIIPSTYVPGTTNHDIALLRLHQPVVLTDHVVPLCLPERTFSERTLAFVRFSLVSGWGQLLDRGATALELMVLNVPRLMTQDCLQQSRKVGDSPNITEYMFCAGYSDGSKDSCKGDSGGPHATHYRGTWYLTGIVSWGQGCATVGHFGVYTRVSQYIEWLQKLMRSEPRPGVLLRAPFPDIGGGGSGGGGSGGGGSGGGGSGGGGSGGGGSAQVQLQESGGGLVQPGGSLRLSCAASGFMFSRYAMSWVRQAPGKGPEWVSGISGSGGSTYYADSVKGRFTVSRDNSKNTLYLQMNSLRAEDTAVYYCARGATYTSRSDVPDQTSFDYWGQGTLVTVSSGSASAPKLEEGEFSEARVSELTQDPAVSVALGQTVRITCQGDSLRNFYASWYQQKPGQAPTLVIYGLSKRPSGIPDRFSASSSGNTASLTITGAQAEDEADYYCLLYYGGGQQGVFGGGTKLTVLRQPKAAPSVTLFPPSSAA
notes: SCE5 at the C-terminus of FVIIa; no Fc; also called pSYN-FVII-094
B1: binds.
